From article doi:10.1101/763847

Molecular target: single-bond CDH23 fusion protein (EC1-5/EC3-5 Fc heterodimer with one EC1-2 binding domain) (mouse)
Experiment: single-molecule dynamic force spectroscopy

With “single-bond PCDH15 fusion protein (EC1-5/EC3-5 Fc heterodimer with one EC1-2 binding domain) (Fc fusion)” the force sensitivity fβ (force that accelerates the off-rate e-fold) was 14.3 pN, the koff was 0.62 s⁻¹ and the mean lifetime (1/koff) at zero force was 1.6 s. The mean zero-force lifetime in 50 uM Ca2+ was 0.87 s and the single-bond lifetime at a resting tension of 10 pN (calculated from the fit) was 1 s.
